Results: the supplement of paper PMC10567573

B1: DVL3 (parent)
chain: SDVVDWLYHNVEGFTDRREARKYA
B2: C10orf62 (parent)
chain: TSECPSDKDKSPESHKAKNESWIK

Variants of: B1
Test: protein stability index of a GFP-peptide fusion (GPS, HEK-293T) (PSI 1-6); higher = more stable
Settings: c terminus: a fixed tail appended
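Further: lentivirally expressed fusions sorted by FACS into six bins by GFP to DsRed ratio, PSI derived from sequencing read proportions per bin multiplied by bin number.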

Variant	protein stability index
SDVVDWLYHNVEGFTDRRHARKYA [E19H]	2.58
SDVVDWLYHNVEGFTDRRGARKYA [E19G]	3.02
SDVVDWLYHNVEGFTDRRNARKYA [E19N]	2.86
SDVVDWLYHNVEGFTDRRFARKYA [E19F]	2.34
SDVVDWLYHNVEGFTDRRDARKYA [E19D]	3.18
SDVVDWLYHNVEGFTDRRVARKYA [E19V]	2.66
SDVVDWLYHNVEGFTDRRLARKYA [E19L]	2.35
SDVVDWLYHNVEGFTDRRYARKYA [E19Y]	1.73
SDVVDWLYHNVEGFTDRREACKYA [R21C]	2.31
SDVVDWLYHNVEGFTDRREAPKYA [R21P]	2.66
SDVVDWLYHNVEGFTDRREANKYA [R21N]	3.21
SDVVDWLYHNVEGFTDRREAKKYA [R21K]	3.24
SDVVDWLYHNVEGFTDRREADKYA [R21D]	3.52
SDVVDWLYHNVEGFTDRREAMKYA [R21M]	2.35
SDVVDWLYHNVEGFTDRREAEKYA [R21E]	3.57
SDVVDWLYHNVEGFTDRREAWKYA [R21W]	1.67
SDVVDWLYHNVEGFTDRREAYKYA [R21Y]	2.34
SDVVDWLYHNVEGFTDRREATKYA [R21T]	3.88
SDVVDWLYHNVEGFTDRREAQKYA [R21Q]	3.35
SDVVDWLYHNVEGFTDRREAAKYA [R21A]	2.48
SDVVDWLYHNVEGFTDRREAVKYA [R21V]	2.78
SDVVDWLYHNVEGFTDRREAFKYA [R21F]	2.65
SDVVDWLYHNVEGFTDRREASKYA [R21S]	2.84

Variant	protein stability index
SDVVDWLYHNVEGFTDRREAIKYA [R21I]	2.33
SDVVDWLYHNVEGFTDRREAHKYA [R21H]	3.02
SDVVDWLYHNVEGFTDRREALKYA [R21L]	3.1
SDVVDWLYHNVEGFTDRMEARKYA [R18M]	2.4
SDVVDWLYHNVEGFTDRTEARKYA [R18T]	3.59
SDVVDWLYHNVEGFTDRKEARKYA [R18K]	2.97
SDVVDWLYHNVEGFTDRSEARKYA [R18S]	3.43
SDVVDWLYHNVEGFTDRAEARKYA [R18A]	3.19
SDVVDWLYHNVEGFTDRHEARKYA [R18H]	3.41
SDVVDWLYHNVEGFTDRLEARKYA [R18L]	2.04
SDVVDWLYHNVEGFTDRNEARKYA [R18N]	3.55
SDVVDWLYHNVEGFTDRCEARKYA [R18C]	2.52
SDVVDWLYHNVEGFTDRDEARKYA [R18D]	3.99
SDVVDWLYHNVEGFTDRFEARKYA [R18F]	2.35
SDVVDWLYHNVEGFTDREEARKYA [R18E]	3.84
SDVVDWLYHNVEGFTDRVEARKYA [R18V]	3.53
SDVVDWLYHNVEGFTDRQEARKYA [R18Q]	2.94
SDVVDWLYHNVEGFTDRYEARKYA [R18Y]	2.19
SDVVDWLYHNVEGFTDRWEARKYA [R18W]	1.55
SDVVDWLYHNVEGFTDRPEARKYA [R18P]	3.03
SDVVDWLYHNVEGFTDRGEARKYA [R18G]	2.38
SDVVDWLYHNVEGFTDRIEARKYA [R18I]	2.42

Variants of: B2
Test: as above
Settings: c terminus: a fixed tail appended

Variant	protein stability index
CSECPSDKDKSPESHKAKNESWIK [T1C]	2.88
WSECPSDKDKSPESHKAKNESWIK [T1W]	2.28
YSECPSDKDKSPESHKAKNESWIK [T1Y]	3.14
VSECPSDKDKSPESHKAKNESWIK [T1V]	2.3
KSECPSDKDKSPESHKAKNESWIK [T1K]	3.31
RSECPSDKDKSPESHKAKNESWIK [T1R]	4.3
MSECPSDKDKSPESHKAKNESWIK [T1M]	3.23
FSECPSDKDKSPESHKAKNESWIK [T1F]	3.08
HSECPSDKDKSPESHKAKNESWIK [T1H]	3.57
QSECPSDKDKSPESHKAKNESWIK [T1Q]	3.27
NSECPSDKDKSPESHKAKNESWIK [T1N]	3.38
LSECPSDKDKSPESHKAKNESWIK [T1L]	4.35
ESECPSDKDKSPESHKAKNESWIK [T1E]	3.09
ISECPSDKDKSPESHKAKNESWIK [T1I]	3.04
ASECPSDKDKSPESHKAKNESWIK [T1A]	2.87
DSECPSDKDKSPESHKAKNESWIK [T1D]	3.6
TSNCPSDKDKSPESHKAKNESWIK [E3N]	3.36
TSHCPSDKDKSPESHKAKNESWIK [E3H]	2.84
TSKCPSDKDKSPESHKAKNESWIK [E3K]	2.92
TSTCPSDKDKSPESHKAKNESWIK [E3T]	3.27
TSSCPSDKDKSPESHKAKNESWIK [E3S]	3.34
TSACPSDKDKSPESHKAKNESWIK [E3A]	2.94
TSMCPSDKDKSPESHKAKNESWIK [E3M]	2.88
TSICPSDKDKSPESHKAKNESWIK [E3I]	2.14
TSGCPSDKDKSPESHKAKNESWIK [E3G]	3.73

Variant	protein stability index
TSRCPSDKDKSPESHKAKNESWIK [E3R]	3.21
TSPCPSDKDKSPESHKAKNESWIK [E3P]	4.09
TSDCPSDKDKSPESHKAKNESWIK [E3D]	2.73
TSQCPSDKDKSPESHKAKNESWIK [E3Q]	2.94
TSLCPSDKDKSPESHKAKNESWIK [E3L]	3.5
TSCCPSDKDKSPESHKAKNESWIK [E3C]	3.01
TIECPSDKDKSPESHKAKNESWIK [S2I]	3.25
TGECPSDKDKSPESHKAKNESWIK [S2G]	3.26
TYECPSDKDKSPESHKAKNESWIK [S2Y]	3.47
TCECPSDKDKSPESHKAKNESWIK [S2C]	3.96
THECPSDKDKSPESHKAKNESWIK [S2H]	3.47
TNECPSDKDKSPESHKAKNESWIK [S2N]	3.74
TAECPSDKDKSPESHKAKNESWIK [S2A]	2.63
TQECPSDKDKSPESHKAKNESWIK [S2Q]	3.85
TLECPSDKDKSPESHKAKNESWIK [S2L]	3.24
TPECPSDKDKSPESHKAKNESWIK [S2P]	3.17
TWECPSDKDKSPESHKAKNESWIK [S2W]	3.64
TEECPSDKDKSPESHKAKNESWIK [S2E]	3.98
TRECPSDKDKSPESHKAKNESWIK [S2R]	4.43
TDECPSDKDKSPESHKAKNESWIK [S2D]	3.7
TTECPSDKDKSPESHKAKNESWIK [S2T]	3.03
TMECPSDKDKSPESHKAKNESWIK [S2M]	3.17
TFECPSDKDKSPESHKAKNESWIK [S2F]	3.12
TKECPSDKDKSPESHKAKNESWIK [S2K]	3.13
